From publication PMC6815173 (Proceedings of the National Academy of Sciences of the …, 2019)

B1: full-length human β-catenin (natural protein)
chain: GMATQADLMELDMAMEPDRKAAVSHWQQQSYLDSGIHSGATTTAPSLSGKGNPEEEDVDTSQVLYEWEQGFSQSFTQEQVADIDGQYAMTRAQRVRAAMFPETLDEGMQIPSTQFDAAHPTNVQRLAEPSQMLKHAVVNLINYQDDAELATRAIPELTKLLNDEDQVVVNKAAVMVHQLSKKEASRHAIMRSPQMVSAIVRTMQNTNDVETARCTAGTLHNLSHHREGLLAIFKSGGIPALVKMLGSPVDSVLFYAITTLHNLLLHQEGAKMAVRLAGGLQKMVALLNKTNVKFLAITTDCLQILAYGNQESKLIILASGGPQALVNIMRTYTYEKLLWTTSRVLKVLSVCSSNKPAIVEAGGMQALGLHLTDPSQRLVQNCLWTLRNLSDAATKQEGMEGLLGTLVQLLGSDDINVVTCAAGILSNLTCNNYKNKMMVCQVGGIEALVRTVLRAGDREDITEPAICALRHLTSRHQEAEMAQNAVRLHYGLPVVVKLLHPPSHWPLIKATVGLIRNLALCPANHAPLREQGAIPRLVQLLVRAHQDTQRRTSMGGTQQQFVEGVRMEEIVEGCTGALHILARDVHNRIVIRGLNTIPLFVQLLYSPIENIQRVAAGVLCELAQDKEAAEAIEAEGATAPLTELLHSRNEGVATYAAAVLFRMSEDKPQDYKKRLSVELTSSLFRTEPMAWNETADLGLDIGAQGEPLGYRQDDPSYRSFHSGGYGQDALGMDPMMEHEMGGHHPGADYPVDGLPDLGHAQDLMDGLPPGDSNQLAWFDTDL
B2: full-length human αE-catenin (natural protein)
chain: GMTAVHAGNINFKWDPKSLEIRTLAVERLLEPLVTQVTTLVNTNSKGPSNKKRGRSKKAHVLAASVEQATENFLEKGDKIAKESQFLKEELVAAVEDVRKQGDLMKAAAGEFADDPCSSVKRGNMVRAARALLSAVTRLLILADMADVYKLLVQLKVVEDGILKLRNAGNEQDLGIQYKALKPEVDKLNIMAAKRQQELKDVGHRDQMAAARGILQKNVPILYTASQACLQHPDVAAYKANRDLIYKQLQQAVTGISNAAQATASDDASQHQGGGGGELAYALNNFDKQIIVDPLSFSEERFRPSLEERLESIISGAALMADSSCTRDDRRERIVAECNAVRQALQDLLSEYMGNAGRKERSDALNSAIDKMTKKTRDLRRQLRKAVMDHVSDSFLETNVPLLVLIEAAKNGNEKEVKEYAQVFREHANKLIEVANLACSISNNEEGVKLVRMSASQLEALCPQVINAALALAAKPQSKLAQENMDLFKEQWEKQVRVLTDAVDDITSIDDFLAVSENHILEDVNKCVIALQEKDVDGLDRTAGAIRGRAARVIHVVTSEMDNYEPGVYTEKVLEATKLLSNTVMPRFTEQVEAAVEALSSDPAQPMDENEFIDASRLVYDGIRDIRKAVLMIRTPEELDDSDFETEDFDVRSRTSVQTEDDQLIAGQSARAIMAQLPQEQKAKIAEQVASFQEEKSKLDAEVSKWDDSGNDIIVLAKQMCMIMMEMTDFTRGKGPLKNTSDVISAAKKIAEAGSRMDKLGRTIADHCPDSACKQDLLAYLQRIALYCHQLNICSKVKAEVQNLGGELVVSGVDSAMSLIQAAKNLMNAVVQTVKASYVASTKYQKSQGMASLNLPAVSWKMKAPEKKPLVKREKQDETQTKIKRASQKKHVNPVQALSEFKAMDSI
B3: entire cytoplasmic domain of human E-cadherin (EcadCT; residues 731 to 882) (domain or fragment)
chain: not shown
B4: complex of the β-catenin truncation mutant that lacks the N-terminal 107 residues with EcadCT (B_(N-107)E) (complex)
chain 1: QIPSTQFDAAHPTNVQRLAEPSQMLKHAVVNLINYQDDAELATRAIPELTKLLNDEDQVVVNKAAVMVHQLSKKEASRHAIMRSPQMVSAIVRTMQNTNDVETARCTAGTLHNLSHHREGLLAIFKSGGIPALVKMLGSPVDSVLFYAITTLHNLLLHQEGAKMAVRLAGGLQKMVALLNKTNVKFLAITTDCLQILAYGNQESKLIILASGGPQALVNIMRTYTYEKLLWTTSRVLKVLSVCSSNKPAIVEAGGMQALGLHLTDPSQRLVQNCLWTLRNLSDAATKQEGMEGLLGTLVQLLGSDDINVVTCAAGILSNLTCNNYKNKMMVCQVGGIEALVRTVLRAGDREDITEPAICALRHLTSRHQEAEMAQNAVRLHYGLPVVVKLLHPPSHWPLIKATVGLIRNLALCPANHAPLREQGAIPRLVQLLVRAHQDTQRRTSMGGTQQQFVEGVRMEEIVEGCTGALHILARDVHNRIVIRGLNTIPLFVQLLYSPIENIQRVAAGVLCELAQDKEAAEAIEAEGATAPLTELLHSRNEGVATYAAAVLFRMSEDKPQDYKKRLSVELTSSLFRTEPMAWNETADLGLDIGAQGEPLGYRQDDPSYRSFHSGGYGQDALGMDPMMEHEMGGHHPGADYPVDGLPDLGHAQDLMDGLPPGDSNQLAWFDTDL
chain 2: not shown

What was measured:
[1] = molecular target: B2; experiment: contrast variation small-angle neutron scattering
[2] = molecular target: β-catenin•epithelial cadherin cytoplasmic domain complex (BE) (human, UniProt P35222;P12830); experiment: SPR
[3] = molecular target: B1; experiment: SPR
[4] = molecular target: B2; experiment: SPR

Binder: B1
- binding result [1]: binds

Binder: B2
- Kd [2]: 119 ± 6.3 nM
- koff [2]: 0.0004 s⁻¹

Binder: B3
- Kd [3]: 104 ± 3.2 nM

Binder: B4
- Kd [4]: 12600 ± 758 nM
- koff [4]: 0.002 s⁻¹
